Source: patent US20030143192A1

Target: human CCR3 (human) (UniProt P51677)
Assay: cell-based or functional assay

Chain of human CCR3 (human) (P51677 whole entry): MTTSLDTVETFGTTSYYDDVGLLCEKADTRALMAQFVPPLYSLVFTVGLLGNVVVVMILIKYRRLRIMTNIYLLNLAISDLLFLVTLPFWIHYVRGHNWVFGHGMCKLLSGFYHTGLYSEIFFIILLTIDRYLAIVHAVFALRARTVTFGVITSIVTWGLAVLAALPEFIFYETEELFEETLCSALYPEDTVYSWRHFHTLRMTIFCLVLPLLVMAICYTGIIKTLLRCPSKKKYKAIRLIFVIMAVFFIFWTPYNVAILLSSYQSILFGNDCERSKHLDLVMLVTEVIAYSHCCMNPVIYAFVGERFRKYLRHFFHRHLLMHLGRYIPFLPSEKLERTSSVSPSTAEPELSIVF

“aminooxypentane (AOP)-RANTES (from UniProt P13501 24-91) (ligand)” was tested, and the reduction of 25 nM eotaxin-induced Ca^2+ flux in HOS-CCR3 cells by 100 nM antagonist was 35%.
